Patent US20250236878A1 (priority 2019, published 2025)

B1: Amylase from Bacillus subtilis 168: starch-degrading Amylase, trunk-injected at 92 U per tree (protein, UniProt P00691 42-659, looked up)
Alpha-amylase: LTAPSIKSGTILHAWNWSFNTLKHNMKDIHDAGYTAIQTSPINQVKEGNQGDKSMSNWYWLYQPTSYQIGNRYLGTEQEFKEMCAAAEEYGIKVIVDAVINHTTSDYAAISNEVKSIPNWTHGNTQIKNWSDRWDVTQNSLLGLYDWNTQNTQVQSYLKRFLDRALNDGADGFRFDAAKHIELPDDGSYGSQFWPNITNTSAEFQYGEILQDSASRDAAYANYMDVTASNYGHSIRSALKNRNLGVSNISHYASDVSADKLVTWVESHDTYANDDEESTWMSDDDIRLGWAVIASRSGSTPLFFSRPEGGGNGVRFPGKSQIGDRGSALFEDQAITAVNRFHNVMAGQPEELSNPNGNNQIFMNQRGSHGVVLANAGSSSVSINTATKLPDGRYDNKAGAGSFQVNDGKLTGTINARSVAVLYPDDIAKAPHVFLENYKTGVTHSFNDQLTITLRADANTTKAVYQINNGPETAFKDGDQFTIGKGDPFGKTYTIMLKGTNSDGVTRTEKYSFVKRDPASAKTIGYQNPNHWSQVNAYIYKHDGSRVIELTGSWPGKPMTKNADGIYTLTLPADTDTTNAKVIFNNGSAQVPGQNQPGFDYVLNGLYNDSGLSGSLPH
B2: Serine Protease 2: serine protease 2 cloned from Bacillus subtilis, four substitutions relative to SEQ ID NO: 722 (protein, listed as Bacillus subtilis)
chain: SSKTSADLEKAEVFGDIDMTTSKKTTVIVELKEKSLAEAKEAGESQSKSKLKTARTQAKNKAIKAVKNGKVNREYEQVFSGFSMKLPANEIPKLLAVKDVKAVYPNVTYKTDNMKDKDVTISEDAVSPQMDDSAPYIGANDAWDLGYTGKGIKVAIIDTGVEYNHPDLKKNFGQYKGYDFVDNDYDPKETPTGDPRGEATDHGTHVAGTVAANGTIKGVAPDATLLAYRVLGPGGSGTTENVIAGVERAVQDGADVMNLSLGNSLNNPDWATSTALDWAMSEGVVAVTSNGNSGPNGWTVGSPGTSREAISVGATQLPLDEYAVTFGSYSSAKVMGYNKEDDVKALNNKEVELVEAGIGEAKDFEGKDLTGKVAVVKRGSIAFVDKADNAKKAGAIGMVVYNNLSGEIEANVPGMSVPTIKLSLEDGEKLVSALKAGETKTTFKLTVSKALGEQVADFSSRGPVMDTWMIKPDISAPGVNIVSTIPTHDPDHPYGYGSKQGTSMASPHIAGAVAVIKQAKPKWSVEQIKAAIMNTAVTLKDSDGEVYPHNAQGAGSARIMNAIKADSLVSPGSCSYGTFLKENGNETKNETFTIENQSSIRKSYTLEYSFNGSGISTSGTSRVVIPAHQTGKATARVKVNTKKTKAGTYEGTVIVREGGKTVAKVPTLLIVKEPDYPRVTSVSVSEGSVQGTYQIETYLPAGAEELAFLVYDSNLDFAGQAGIYKNQDKGYQYFDWDGTINGGTKLPAGEYYLLAYAANKGKSSQVLTEEPFTVE

Tests used:
[1] = tested on: HLB-infected citrus trees; experiment: Citrus trials of Examples 20-24: fruit yield, size, count and drop, average over orange and grapefruit trials; format: in vivo, Citrus sinesis; Citrus paradisi; conditions: trunk injection (Table 64)
Procedure: All fruit with a diameter greater than or equal to 1.6 inches (40 mm) were hand-picked and collected for each tree. The total “Fruit Weight” (in kilograms) per individual tree was measured and recorded. Trees with total fruit weights less than or greater than 2 standard deviations (2STDEV) from the trial mean were considered to be outliers and removed from the dataset. Fruit size was assessed as the “Average Weight per Fruit” in grams (weight of 20 random fruit per tree, divided by 20) and “Average Fruit Diameter” in millimeters, as described in Example 1. The “Average Fruit Count” per tree was assessed as the total “Fruit Weight” divided by “Average Weight per Fruit”. “Fruit Drop” was assessed as for Example 1. Fruit quality was assessed as for Example 2, with the exception that one set of fruit consisted for 15 total fruit, each corresponding to a sampling of 3 fruit from 5 trees of the same experimental treatment block. Each set of 15 fruit were weighed (gram; g) and then juiced together. Average yield, % fruit drop, fruit size, and juice quality for each of the tested compositions are described in Examples 20-24.

[2] = tested on: Pseudomonas syringae pv. actinidiae (PSA-V); format: in vivo; conditions: at 6, 16 and 23 DAI; P<0.1

Molecule | average increase in fruit weight relative to control [1] [%] | PSA-V leaf spot symptoms in comparison to the untreated control [2]
B1 | 5 | 
B2 |  | significantly reduced
